Measurements taken from IntAct's records for PubMed 18715118.

B1: Metallothionein expression activator (Saccharomyces cerevisiae), P21192 (parent)
chain: MDNVVDPWYINPSGFAKDTQDEEYVQHHDNVNPTIPPPDNYILNNENDDGLDNLLGMDYYNIDDLLTQELRDLDIPLVPSPKTGDGSSDKKNIDRTWNLGDENNKVSHYSKKSMSSHKRGLSGTAIFGFLGHNKTLSISSLQQSILNMSKDPQPMELINELGNHNTVKNNNDDFDHIRENDGENSYLSQVLLKQQEELRIALEKQKEVNEKLEKQLRDNQIQQEKLRKVLEEQEEVAQKLVSGATNSNSKPGSPVILKTPAMQNGRMKDNAIIVTTNSANGGYQFPPPTLISPRMSNTSINGSPSRKYHRQRYPNKSPESNGLNLFSSNSGYLRDSELLSFSPQNYNLNLDGLTYNDHNNTSDKNNNDKKNSTGDNIFRLFEKTSPGGLSISPRINGNSLRSPFLVGTDKSRDDRYAAGTFTPRTQLSPIHKKRESVVSTVSTISQLQDDTEPIHMRNTQNPTLRNANALASSSVLPPIPGSSNNTPIKNSLPQKHVFQHTPVKAPPKNGSNLAPLLNAPDLTDHQLEIKTPIRNNSHCEVESYPQVPPVTHDIHKSPTLHSTSPLPDEIIPRTTPMKITKKPTTLPPGTIDQYVKELPDKLFECLYPNCNKVFKRRYNIRSHIQTHLQDRPYSCDFPGCTKAFVRNHDLIRHKISHNAKKYICPCGKRFNREDALMVHRSRMICTGGKKLEHSINKKLTSPKKSLLDSPHDTSPVKETIARDKDGSVLMKMEEQLRDDMRKHGLLDPPPSTAAHEQNSNRTLSNETDAL

Variants of: B1
Conditions: with cbk1_yeast CBK1, P53894
cbk1_yeast CBK1, P53894, sequence (P53894 whole entry): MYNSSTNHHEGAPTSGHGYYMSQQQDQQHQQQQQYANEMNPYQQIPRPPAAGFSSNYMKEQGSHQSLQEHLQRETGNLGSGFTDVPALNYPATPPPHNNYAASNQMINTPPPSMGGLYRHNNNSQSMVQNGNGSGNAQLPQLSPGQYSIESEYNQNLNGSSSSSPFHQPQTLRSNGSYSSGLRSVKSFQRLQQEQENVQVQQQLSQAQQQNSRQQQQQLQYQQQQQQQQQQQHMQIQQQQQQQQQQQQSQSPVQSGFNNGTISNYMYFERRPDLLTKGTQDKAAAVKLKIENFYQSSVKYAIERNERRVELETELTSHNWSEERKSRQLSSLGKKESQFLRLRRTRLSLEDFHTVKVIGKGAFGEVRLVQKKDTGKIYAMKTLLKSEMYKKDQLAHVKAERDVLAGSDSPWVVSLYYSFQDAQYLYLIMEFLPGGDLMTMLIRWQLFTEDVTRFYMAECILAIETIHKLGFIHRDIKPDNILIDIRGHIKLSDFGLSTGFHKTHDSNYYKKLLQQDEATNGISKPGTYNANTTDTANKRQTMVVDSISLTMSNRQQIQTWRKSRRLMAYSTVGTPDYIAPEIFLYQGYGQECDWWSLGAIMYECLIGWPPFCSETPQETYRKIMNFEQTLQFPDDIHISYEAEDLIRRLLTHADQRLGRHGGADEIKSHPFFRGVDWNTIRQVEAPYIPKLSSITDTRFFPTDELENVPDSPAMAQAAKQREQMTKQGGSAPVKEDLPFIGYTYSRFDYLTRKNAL

| effect of a mutation on the interaction | Variant |
| --- | --- |
| disrupting interaction | S113A;H117A;S137A |
| disrupting interaction | S113A;S122A;S137A |

Variants of: B1
Conditions: with xpo1_yeast CRM1, P30822

| Variant | effect of a mutation on the interaction |
| --- | --- |
| S137D | decreasing interaction |
| F127V | disrupting interaction |

Further lines, results first:

| effect of a mutation on the interaction | Variant |
| --- | --- |
| disrupting interaction | S122D;S137D |
| decreasing interaction | S122D |

Variants of: B1
Conditions: with xpo1_yeast CRM1, P30822
Remark: another data set of the same source

| effect of a mutation on the interaction | Variant |
| --- | --- |
| decreasing interaction | F127V |
